According to the supplement of paper PMC10567573:

B1: FAM46C (parent)
chain: FDHLQNRLIATKNPEEIRGGGLLK
B2: TPPP (parent)
chain: LCKDCQVIDGRNVTVTDVDIVFSK

Variants of: B1
Test: protein stability index of a GFP-peptide fusion (GPS, HEK-293T) (PSI 1-6); higher = more stable
Settings: c terminus: a fixed tail appended
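Note: lentivirally expressed fusions sorted by FACS into six bins by GFP to DsRed ratio, PSI derived from sequencing read proportions per bin multiplied by bin number.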

Protein stability index: each site, then its substitutions
F1: S 4.09; I 3.5; K 4.45; L 4.51; E 4.33; V 4.67; H 4.47; C 2.3; P 4.59; G 3.9; Y 3.27; D 5.18; W 3.76; Q 4.74; T 4.28; N 4.4; M 4.39
D2: F 1.89; C 1.72; G 2.82; E 4.18; A 2.78

Variants of: B2
Test: as above
Settings: c terminus: a fixed tail appended

Protein stability index: each site, then its substitutions
V13: W 3.13; R 3.03; E 3.59; D 3.04; C 2.16; H 2.32; N 2.6; T 2.38; A 2.75; M 2.54; S 3.12; F 2.08; L 2.48; P 3.08; I 2.31; Y 2.37; Q 2.49; G 2.79; K 2.36
R11: P 2.57; H 2.15; Q 2.35; W 1.78; V 2.05; A 2.54; E 2.9; S 2.58; F 1.91; N 2.85; T 2.35; K 2.71; C 2.35; D 3.54; Y 1.55; M 2.16; G 2.56; L 1.68; I 1.68
F22: V 2.53; A 2.5; P 3.47; Y 2.84; S 2.78; C 3.38; L 2.08; D 3.96; E 4.25; W 2.3; R 3.31; G 4.09; M 3.12; N 3.66; Q 3.59; H 4.43; T 3.48; K 3.94; I 2.09
D19: F 2.45; M 2.28; Q 1.65; W 2.96; S 2.39; A 2.77; C 2.4; Y 1.47; I 2.09; T 1.42; V 1.95; E 1.79; L 2.26; G 2.08; P 2.56; N 2.13; H 2.97; K 1.39; R 1.36
T16: I 3.14; E 3.01; N 2.59; C 1.72; K 3.06; A 2.23; R 2.44; L 1.72; G 2.01; Y 1.3; P 2.23; W 1.24; Q 2.54; S 2.92; H 2.44; D 3.37; M 1.48
N12: Y 2.66; R 2.23; S 1.98; I 1.53; K 2.52; V 1.71; A 2.57; H 2.65; C 2.17; P 2.4; M 1.73; Q 2.3; F 2.48; L 2.57; D 2.68; E 3.88; G 2.48; T 2.11
K24: P 2.62; H 2.48; Y 2.06; W 2.25; A 2.24; Q 2.35; L 2.99; D 2.77; G 2.55; C 2.02; E 3.39; N 3.05; T 1.97; S 2.44; R 2.39
I20: F 2.38; C 2.68; A 3.04; G 3.35; H 2.91; P 3.14; W 1.98; L 3.02; M 2.5; T 3.06; S 2.55; D 3.46; K 3.27; N 3.5; R 3.22; Y 2.63; E 3.92; Q 3.79
G10: A 2.31; M 1.54; L 1.61; T 2.52; N 2.39; Y 1.99; S 2.74; H 2.8; P 2.63; V 2.34; K 2.88; I 1.3; C 2.14; Q 2.47; D 3.35; W 2.33; E 2.55; R 2.51; F 1.77
D9: T 2.99; S 2.45; N 2; K 2.48; P 2.65; F 1.9; V 1.21; M 2.19; H 2.07; R 2.53; Y 2.27; I 1.66; Q 2.76; E 2.66; G 2.1; C 2.05; W 1.84; L 2.48; A 1.96
D17: W 2.1; L 3.14; A 2.33; K 1.77; I 3.91; M 2.29; H 2.48; G 2.14; V 2.65; T 1.69; S 1.28; E 2.07; N 1.45; R 2.92; Q 1.77; P 2.21; Y 2.97
V18: N 3.79; T 3.69; F 2.54; S 3.12; M 1.92; A 2.9; H 2.91; P 2.73; K 2.77; R 3.06; W 2.23; E 3.52; L 2.4; Y 2.6; G 3.11; Q 3.16; I 2.44; C 2.48; D 3.58
V21: F 1.8; Y 2.08; R 2.46; A 3.47; G 3.28; E 3.88; K 3.22; Q 2.15; P 2.66; M 1.96; I 1.87; W 2.07; S 3.34; L 2.54; H 2.65; T 3.2; C 2.53; D 4; N 3.45
I8: F 2.42; S 2.79; T 3.12; H 2.43; K 2.6; R 3.2; M 2.81; G 2.54; E 3.21; L 2.24; D 3.97; W 1.83; P 3.19; V 3.47; N 2.35; Q 3.14; Y 2; C 2.3; A 2.84
T14: M 1.6; V 1.72; D 2.68; K 2.48; N 2.73; L 1.84; Q 2.7; F 1.91; H 2.61; Y 2.15; R 2.4; W 2.52; A 2.81; C 2.41; E 3.2; S 2.83; G 3.05; I 2.76; P 2.75
V15: K 2.89; S 2.48; T 2.96; D 3.04; F 2.54; H 2.92; G 2.65; C 2.62; Q 2.92; R 3.44; A 2.6; E 3.64; N 2.95; M 1.97; W 2.22; I 2.02; P 4.11; L 2.28; Y 2.01
S23: Y 1.72; C 3.21; R 2.35; D 2.81; P 2.98; T 2.23; M 1.84; E 3.28; I 2.1; L 1.82; Q 2.6; N 2.75; F 1.58; K 3.58; W 2.31; A 2.55; H 3.26; G 3.13
